Experimental data: IntAct's records for PubMed 29892012

B1: Protein VAC14 homolog (Homo sapiens), Q08AM6 (parent)
chain: MNPEKDFAPLTPNIVRALNDKLYEKRKVAALEIEKLVREFVAQNNTVQIKHVIQTLSQEFALSQHPHSRKGGLIGLAACSIALGKDSGLYLKELIEPVLTCFNDADSRLRYYACEALYNIVKVARGAVLPHFNVLFDGLSKLAADPDPNVKSGSELLDRLLKDIVTESNKFDLVSFIPLLRERIYSNNQYARQFIISWILVLESVPDINLLDYLPEILDGLFQILGDNGKEIRKMCEVVLGEFLKEIKKNPSSVKFAEMANILVIHCQTTDDLIQLTAMCWMREFIQLAGRVMLPYSSGILTAVLPCLAYDDRKKSIKEVANVCNQSLMKLVTPEDDELDELRPGQRQAEPTPDDALPKQEGTASGGPDGSCDSSFSSGISVFTAASTERAPVTLHLDGIVQVLNCHLSDTAIGMMTRIAVLKWLYHLYIKTPRKMFRHTDSLFPILLQTLSDESDEVILKDLEVLAEIASSPAGQTDDPGPLDGPDLQASHSELQVPTPGRAGLLNTSGTKGLECSPSTPTMNSYFYKFMINLLKRFSSERKLLEVRGPFIIRQLCLLLNAENIFHSMADILLREEDLKFASTMVHALNTILLTSTELFQLRNQLKDLKTLESQNLFCCLYRSWCHNPVTTVSLCFLTQNYRHAYDLIQKFGDLEVTVDFLAEVDKLVQLIECPIFTYLRLQLLDVKNNPYLIKALYGLLMLLPQSSAFQLLSHRLQCVPNPELLQTEDSLKAAPKSQKADSPSIDYAELLQHFEKVQNKHLEVRHQRSGRGDHLDRRVVL
partner: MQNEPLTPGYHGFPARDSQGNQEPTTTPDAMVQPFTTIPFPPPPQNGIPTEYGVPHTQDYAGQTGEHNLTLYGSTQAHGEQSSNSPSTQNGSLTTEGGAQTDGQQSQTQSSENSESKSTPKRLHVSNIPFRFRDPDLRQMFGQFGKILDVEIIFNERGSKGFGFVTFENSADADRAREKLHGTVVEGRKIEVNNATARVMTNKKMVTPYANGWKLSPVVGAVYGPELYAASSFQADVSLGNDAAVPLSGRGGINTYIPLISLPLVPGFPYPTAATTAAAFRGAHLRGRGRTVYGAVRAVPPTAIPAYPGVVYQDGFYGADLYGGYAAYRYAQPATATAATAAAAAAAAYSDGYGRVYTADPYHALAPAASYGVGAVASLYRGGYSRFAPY
B2: Transmembrane protein 218 (Homo sapiens), A2RU14 (parent)
chain: MAGTVLGVGAGVFILALLWVAVLLLCVLLSRASGAARFSVIFLFFGAVIITSVLLLFPRAGEFPAPEVEVKIVDDFFIGRYVLLAFLSAIFLGGLFLVLIHYVLEPIYAKPLHSY
partner: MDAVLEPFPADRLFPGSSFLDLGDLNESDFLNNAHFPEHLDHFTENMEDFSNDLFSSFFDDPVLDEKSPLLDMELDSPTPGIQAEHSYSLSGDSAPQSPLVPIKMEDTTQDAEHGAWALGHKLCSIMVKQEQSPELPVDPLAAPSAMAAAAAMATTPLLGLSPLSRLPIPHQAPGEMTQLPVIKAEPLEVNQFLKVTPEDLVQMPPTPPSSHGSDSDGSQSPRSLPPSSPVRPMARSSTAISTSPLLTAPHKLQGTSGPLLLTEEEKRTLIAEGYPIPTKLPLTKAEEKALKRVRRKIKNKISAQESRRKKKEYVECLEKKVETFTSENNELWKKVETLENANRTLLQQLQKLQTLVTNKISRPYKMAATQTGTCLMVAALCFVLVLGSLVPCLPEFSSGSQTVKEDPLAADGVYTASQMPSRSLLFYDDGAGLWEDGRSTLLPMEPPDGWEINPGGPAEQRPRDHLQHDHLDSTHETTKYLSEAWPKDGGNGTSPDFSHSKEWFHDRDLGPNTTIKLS
B3: Vacuolar protein-sorting-associated protein 25 (Homo sapiens), Q9BRG1 (parent)
chain: MAMSFEWPWQYRFPPFFTLQPNVDTRQKQLAAWCSLVLSFCRLHKQSSMTVMEAQESPLFNNVKLQRKLPVESIQIVLEELRKKGNLEWLDKSKSSFLIMWRRPEEWGKLIYQWVSRSGQNNSVFTLYELTNGEDTEDEEFHGLDEATLLRALQALQQEHKAEIITVSDGRGVKFF
partner: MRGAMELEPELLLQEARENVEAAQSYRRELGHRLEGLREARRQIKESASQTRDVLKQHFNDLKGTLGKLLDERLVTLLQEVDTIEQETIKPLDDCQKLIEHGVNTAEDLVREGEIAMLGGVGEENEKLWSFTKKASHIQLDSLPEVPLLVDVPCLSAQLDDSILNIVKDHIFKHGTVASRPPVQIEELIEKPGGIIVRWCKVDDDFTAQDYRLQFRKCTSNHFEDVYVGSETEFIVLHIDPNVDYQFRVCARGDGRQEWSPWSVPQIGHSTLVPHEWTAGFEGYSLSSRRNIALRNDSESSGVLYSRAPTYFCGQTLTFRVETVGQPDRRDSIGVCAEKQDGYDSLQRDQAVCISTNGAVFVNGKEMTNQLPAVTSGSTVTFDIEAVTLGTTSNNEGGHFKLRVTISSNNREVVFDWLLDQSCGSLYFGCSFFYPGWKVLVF
B4: Ena/VASP-like protein (Homo sapiens), Q9UI08 (parent)
chain: MSEQSICQARASVMVYDDTSKKWVPIKPGQQGFSRINIYHNTASNTFRVVGVKLQDQQVVINYSIVKGLKYNQATPTFHQWRDARQVYGLNFASKEEATTFSNAMLFALNIMNSQEGGPSSQRQVQNGPSPDEMDIQRRQVMEQHQQQRQESLERRTSATGPILPPGHPSSAASAPVSCSGPPPPPPPPVPPPPTGATPPPPPPLPAGGAQGSSHDESSMSGLAAAIAGAKLRRVQRPEDASGGSSPSGTSKSDANRASSGGGGGGLMEEMNKLLAKRRKAASQSDKPAEKKEDESQMEDPSTSPSPGTRAASQPPNSSEAGRKPWERSNSVEKPVSSILSRTPSVAKSPEAKSPLQSQPHSRMKPAGSVNDMALDAFDLDRMKQEILEEVVRELHKVKEEIIDAIRQELSGISTT
partner: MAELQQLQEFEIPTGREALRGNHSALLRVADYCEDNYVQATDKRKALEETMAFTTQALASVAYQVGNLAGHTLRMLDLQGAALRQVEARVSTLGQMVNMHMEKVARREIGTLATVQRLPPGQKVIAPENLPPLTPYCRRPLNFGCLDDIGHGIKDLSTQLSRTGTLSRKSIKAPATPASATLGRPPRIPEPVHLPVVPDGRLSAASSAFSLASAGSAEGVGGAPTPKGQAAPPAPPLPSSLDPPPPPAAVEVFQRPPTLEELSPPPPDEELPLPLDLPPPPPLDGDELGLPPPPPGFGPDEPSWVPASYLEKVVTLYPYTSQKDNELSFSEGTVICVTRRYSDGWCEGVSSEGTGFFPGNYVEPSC

Variants of: B1
Details: with rfox2_human RBFOX2, O43251

effect of a mutation on the interaction | Variant
with no effect | A127S

Variants of: B2
Details: with cr3l1_human CREB3L1, Q96BA8

effect of a mutation on the interaction | Variant
with no effect | P66S

Variants of: B3
Details: with crlf3_human CRLF3, Q8IUI8

effect of a mutation on the interaction | Variant
with no effect | P58Q

Variants of: B4
Details: with abi3_human ABI3, Q9P2A4

effect of a mutation on the interaction | Variant
with no effect | R10Q
